# Measured values from IntAct's records for PubMed 22918830.
# B1: Histone deacetylase 3 (Homo sapiens), O15379 (parent)
# chain: MAKTVAYFYDPDVGNFHYGAGHPMKPHRLALTHSLVLHYGLYKKMIVFKPYQASQHDMCRFHSEDYIDFLQRVSPTNMQGFTKSLNAFNVGDDCPVFPGLFEFCSRYTGASLQGATQLNNKICDIAINWAGGLHHAKKFEASGFCYVNDIVIGILELLKYHPRVLYIDIDIHHGDGVQEAFYLTDRVMTVSFHKYGNYFFPGTGDMYEVGAESGRYYCLNVPLRDGIDDQSYKHLFQPVINQVVDFYQPTCIVLQCGADSLGCDRLGCFNLSIRGHGECVEYVKSFNIPLLVLGGGGYTVRNVARCWTYETSLLVEEAISEELPYSEYFEYFAPDFTLHPDVSTRIENQNSRQYLDQIRQTIFENLKMLNHAPSVQIHDVPADLLTYDRTDEADAEERGPEENYSRPEAPNEFYDGDHDNDKESDVEI
# Variants of: B1
# Details: with hdac1_human HDAC1, Q13547
# hdac1_human HDAC1, Q13547, sequence (Q13547 whole entry): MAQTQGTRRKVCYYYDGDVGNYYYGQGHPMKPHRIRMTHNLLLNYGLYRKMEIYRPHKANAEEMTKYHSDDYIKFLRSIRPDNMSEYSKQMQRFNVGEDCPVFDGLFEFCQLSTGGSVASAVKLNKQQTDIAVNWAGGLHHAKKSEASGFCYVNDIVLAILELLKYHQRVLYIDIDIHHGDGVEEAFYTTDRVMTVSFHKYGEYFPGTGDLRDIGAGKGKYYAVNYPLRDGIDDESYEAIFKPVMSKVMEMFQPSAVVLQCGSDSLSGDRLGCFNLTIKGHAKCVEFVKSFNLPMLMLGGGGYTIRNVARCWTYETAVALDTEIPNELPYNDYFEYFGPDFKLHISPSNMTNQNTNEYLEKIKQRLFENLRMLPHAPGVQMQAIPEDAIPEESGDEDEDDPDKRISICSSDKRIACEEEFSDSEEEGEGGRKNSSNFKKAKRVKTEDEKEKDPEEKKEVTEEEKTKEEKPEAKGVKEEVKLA
row,Variant,effect of a mutation on the interaction
1,H134Q,with no effect
